The values below come from US9518268B2, “Drought tolerant transgenic plants and method of making same” (PURDUE RESEARCH FOUNDATION, priority 2013, dated 2016).

Holding throughout (assay): Phosphatase activity assay (pNPP) with purified PP2Cs and PYLs
The test system of data set [1] is ABI1. Format: biochemical, Arabidopsis thaliana. To be noted: in the presence of 10 μM ABA; ABI1 and PYLs 0.3 μM. As for the experimental part: (§1) The inhibition by PYL13 is ABA-independent, whereas the inhibition by PYR1 and PYL2 is ABA-induced (FIG. 4B). […] The phosphatase activities of PP2CA, ABI1, and ABI2 were measured in the absence or presence of ABA (1.25 μM), and with or without PYLs. The concentration of PP2Cs and PYLs was 0.3 μM. The A405 value of reaction without PP2C was set as 0% and that of the reaction with PP2C but without ABA and PYLs was set as 100%. Error bars indicate s.e.m. (n=6 for PP2CA and ABI2, and n=3 for ABI1).
(§2) To test the functional significance of potential heterodimer formation between PYL13 and other PYLs, the abilities of PYL1 and PYL2 and the protein complexes PYL13-PYL1 and PYL13-PYL2 to inhibit the phosphatase activity of ABI1 were compared using purified recombinant proteins and the synthetic phosphatase substrate pNPP. […] The phosphatase activity of ABI1 was measured (using pNPP) in the absence or presence of 10 μM ABA, with or without PYLs, and with PYL13-PYL dimers. The concentration of ABI1 and PYLs was 0.3 μM. The A405 value of reaction without ABI1 was set as 0% and that of the reaction with ABI1 but without ABA and PYLs was set as 100%. Error bars indicate s.e.m. (n=6). In the presence of 10 μM ABA, ABI1 phosphatase activity was reduced to 67±6% by PYL1 but only to 88±8% by PYL13-PYL1. In the presence of 10 μM ABA, ABI1 phosphatase activity was reduced to 50±3% by PYL2 but only to 78±10% by PYL13-PYL2.
(§3) Phosphatase activity was measured using the colorimetric substrate p-nitrophenyl phosphate (pNPP, SIGMA). Reactions were performed in a reaction buffer containing 50 mM Tris-HCl, pH 7.5, 25 mM Mg(OAc)2, 2 mM MnCl2, 0.5 mM EGTA, 0.5% β-mercaptoethanol, and 0.5% BSA. ABA and PYLs were added as indicated. The concentration of PP2Cs and PYLs was 0.3 μM. Reactions were initiated by the addition of pNPP to a final concentration of 50 mM. The hydrolysis of pNPP was measured by following the absorbance at 405 nm (A405). Because His-PYL13 is difficult to purify, is prone to degradation, and rapidly loses activity, newly purified PYL13 was used for the phosphatase activity assay.

Data set [2] has as its target T1, ABI1 (Arabidopsis thaliana, UniProt P49597).
T1 construct: GST (N, cleaved yes); made in house; host or cells: Escherichia coli BL21 (DE3.0)
T1 sequence (P49597 1-434): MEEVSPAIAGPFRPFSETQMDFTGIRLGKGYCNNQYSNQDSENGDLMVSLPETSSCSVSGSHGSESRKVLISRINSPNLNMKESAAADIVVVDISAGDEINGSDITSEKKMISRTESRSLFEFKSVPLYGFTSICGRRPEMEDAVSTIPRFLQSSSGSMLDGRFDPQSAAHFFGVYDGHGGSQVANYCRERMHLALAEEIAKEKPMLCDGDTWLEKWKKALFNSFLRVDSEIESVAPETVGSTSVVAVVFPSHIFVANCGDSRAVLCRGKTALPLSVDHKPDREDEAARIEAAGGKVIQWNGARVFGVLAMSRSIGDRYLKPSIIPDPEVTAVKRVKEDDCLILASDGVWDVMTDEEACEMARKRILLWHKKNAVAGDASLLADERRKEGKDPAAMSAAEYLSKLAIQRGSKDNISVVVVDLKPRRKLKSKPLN
Format: biochemical. To be noted: PP2Cs and PYLs 0.3 μM. Here is the method: as §1, §2, §3

The target in a further data set is T2, ABI2 (Arabidopsis thaliana, UniProt O04719).
T2 construct: GST (N, cleaved yes); made in house; host or cells: Escherichia coli BL21 (DE3.0)
T2 sequence (O04719 1-423): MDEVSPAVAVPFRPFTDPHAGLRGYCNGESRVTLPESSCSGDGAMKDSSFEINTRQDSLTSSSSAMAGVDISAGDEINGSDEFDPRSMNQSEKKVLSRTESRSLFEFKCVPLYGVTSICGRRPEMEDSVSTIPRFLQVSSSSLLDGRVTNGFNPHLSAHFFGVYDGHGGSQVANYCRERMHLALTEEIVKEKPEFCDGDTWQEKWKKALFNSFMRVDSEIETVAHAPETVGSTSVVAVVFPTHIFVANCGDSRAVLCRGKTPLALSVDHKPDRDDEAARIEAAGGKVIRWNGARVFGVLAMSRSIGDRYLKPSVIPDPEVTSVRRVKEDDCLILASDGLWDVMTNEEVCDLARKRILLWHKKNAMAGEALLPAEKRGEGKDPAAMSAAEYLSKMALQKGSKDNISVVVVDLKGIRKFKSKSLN
Format: biochemical. To be noted: PP2Cs and PYLs 0.3 μM. As for the experimental part: as §1, §3

A further data set has as its target T3, PP2CA (Arabidopsis thaliana, UniProt P49598).
T3 construct: GST (N, cleaved yes); made in house; host or cells: Escherichia coli BL21 (DE3.0)
T3 sequence (P49598 1-399): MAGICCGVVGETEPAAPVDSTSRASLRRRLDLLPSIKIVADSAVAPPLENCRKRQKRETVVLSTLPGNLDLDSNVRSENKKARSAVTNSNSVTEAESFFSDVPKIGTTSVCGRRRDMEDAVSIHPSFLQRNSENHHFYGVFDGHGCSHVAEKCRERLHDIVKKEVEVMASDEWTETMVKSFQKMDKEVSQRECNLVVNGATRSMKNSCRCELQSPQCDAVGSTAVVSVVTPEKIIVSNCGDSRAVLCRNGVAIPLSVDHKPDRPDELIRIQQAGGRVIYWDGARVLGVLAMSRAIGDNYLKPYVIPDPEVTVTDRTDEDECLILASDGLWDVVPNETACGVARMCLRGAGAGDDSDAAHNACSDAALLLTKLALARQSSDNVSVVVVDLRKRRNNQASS
T3 sequence (Q9SN51 1-164 partner): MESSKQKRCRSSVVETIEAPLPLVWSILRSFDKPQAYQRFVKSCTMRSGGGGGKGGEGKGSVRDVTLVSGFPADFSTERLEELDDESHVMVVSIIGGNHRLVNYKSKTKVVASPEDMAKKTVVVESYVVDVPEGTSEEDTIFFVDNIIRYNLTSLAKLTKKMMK
It is filed as biochemical. To be noted: PP2Cs and PYLs 0.3 μM. As for the experimental part: as §1, §3

For the molecule “PYL2: Arabidopsis thaliana PYL family ABA receptor protein PYL2, AT2G26040”, the “ABI1 phosphatase activity reduced to” value in the data set with ABI1 [1] worked out at 50±3%.

B1: PYL13: Arabidopsis thaliana PYR/PYL/RCAR family protein PYL13, SEQ ID NO: 1 (protein, listed as Arabidopsis thaliana)
chain: T3 sequence (Q9SN51 1-164 partner)
Turning to B1, the “ABI1 phosphatase activity reduced to” value with ABI1 [2] (with 1.25 μM ABA) and with ABI1 [2] (without ABA) was 75±3% throughout. The “ABI2 phosphatase activity reduced to” value in the data set with ABI2 (with 1.25 μM ABA) is on record as 93±6%; in the data set with ABI2 (without ABA) it was 89±8%. For the same molecule, the “PP2CA phosphatase activity reduced to” value with PP2CA (with 1.25 μM ABA) is given as 54±5%; with PP2CA (without ABA, PP2C without ABA and PYLs = 100%), 55±5%.
